Patent US7026443

molecular target: HLA-A*1101 (human); assay: competitive inhibition of 125I-labelled standard peptide binding to purified HLA, gel filtration; details: not given

In order of rising binding affinity ratio (IC50 of standard peptide / IC50 of test peptide):
1. NIHPAKDNR (modifications not checked) [HPV18 E1 position 574 peptide …]  0.0002
2. NSGQKKAKR (modifications not checked) [HPV18 E1 position 119 peptide …]  0.0002
3. KLRAGQNHR (modifications not checked) [HPV18 E1 position 647 peptide …]  0.0013
4. KSFLKGTPK (modifications not checked) [HPV18 E1 position 468 peptide …]  0.0015
5. QVLHVLKRK (modifications not checked) [HPV18 E1 position 80 peptide …]  0.002
6. WTYFDTYMR (modifications not checked) [HPV18 E1 position 536 peptide …]  0.012
7. LTTNIHPAK (modifications not checked) [HPV18 E1 position 571 peptide …]  0.12
8. LILALLRYK (modifications not checked) [HPV18 E1 position 281 peptide …]  0.18

molecular target: HLA-A*0301 (human); assay: as above; details: not given

In order of falling binding affinity ratio (IC50 of standard peptide / IC50 of test peptide):
1. KLRAGQNHR (modifications not checked) [HPV18 E1 position 647 peptide …]  0.3
2. LILALLRYK (modifications not checked) [HPV18 E1 position 281 peptide …]  0.27
3. LTTNIHPAK (modifications not checked) [HPV18 E1 position 571 peptide …]  0.091
4. QVLHVLKRK (modifications not checked) [HPV18 E1 position 80 peptide …]  0.0028
5. NIHPAKDNR (modifications not checked) [HPV18 E1 position 574 peptide …]  0.0005
6. WTYFDTYMR (modifications not checked) [HPV18 E1 position 536 peptide …]  0.0005
7. NSGQKKAKR (modifications not checked) [HPV18 E1 position 119 peptide …]  0.0005
8. KSFLKGTPK (modifications not checked) [HPV18 E1 position 468 peptide …]  0.0003

molecular target: HLA-A*0201 (human); assay: competition with 125I-labelled standard peptide on purified HLA, gel filtration; details: not given

In order of rising binding affinity ratio (IC50 of standard peptide / IC50 of test peptide):
1. VTFCCKCDST (modifications not checked) [HPV16 E7 55 …]  0.0001
2. TLEDLLMGTL (modifications not checked)  0.0002
3. TLRLCVQSTHV (modifications not checked)  0.0006
4. STLRLCVQST (modifications not checked) [HPV16 E7 63 …]  0.0012
5. TLRLCVQST (modifications not checked)  0.0061
6. YMLDLQPET (modifications not checked) [HPV16 E7 11 …]  0.14

same assay, conditions: remark: other sources report otherwise

TLEDLLMGT (modifications not checked) was tested, and the binding affinity ratio (IC50 of standard peptide / IC50 of test peptide) was 0.0002.

molecular target: HLA-B*5401 (human); assay: competition with 125I-labelled standard peptide for purified HLA, gel filtration; details: not given

In order of falling binding affinity ratio (IC50 of standard peptide / IC50 of test peptide):
1. IPHAACHKCI (modifications not checked) [HPV18 E6 peptide … (position 60, 10 amino acids)]  0.0005
2. NPAEKLRHL (modifications not checked) [HPV18 E6 peptide … (position 113, 9 amino acids)]  0.0002
3. KPLNPAEKL (modifications not checked) [HPV18 E6 peptide … (position 110, 9 amino acids)]  0.0002
4. GPKATLQDI (modifications not checked) [HPV18 E7 peptide … (position 3, 9 amino acids)]  0.0002
5. DPTRRPYKL (modifications not checked) [HPV18 E6 peptide … (position 6, 9 amino acids)]  0.0002
6. EPQNEIPVDL (modifications not checked) [HPV18 E7 peptide … (position 16, 10 amino acids)]  0.0001
7. EPQRHTMLCM (modifications not checked) [HPV18 E7 peptide … (position 55, 10 amino acids)]  0.0001

molecular target: HLA-B*3501 (human); assay: as above; details: not given

In order of falling binding affinity ratio (IC50 of standard peptide / IC50 of test peptide):
1. EPQNEIPVDL (modifications not checked) [HPV18 E7 peptide … (position 16, 10 amino acids)]  0.0005
2. EPQRHTMLCM (modifications not checked) [HPV18 E7 peptide … (position 55, 10 amino acids)]  0.0002
3. NPAEKLRHL (modifications not checked) [HPV18 E6 peptide … (position 113, 9 amino acids)]  0.0001
4. KPLNPAEKL (modifications not checked) [HPV18 E6 peptide … (position 110, 9 amino acids)]  0.0001
5. IPHAACHKCI (modifications not checked) [HPV18 E6 peptide … (position 60, 10 amino acids)]  0.0001
6. GPKATLQDI (modifications not checked) [HPV18 E7 peptide … (position 3, 9 amino acids)]  0.0001
7. DPTRRPYKL (modifications not checked) [HPV18 E6 peptide … (position 6, 9 amino acids)]  0.0001

molecular target: HLA-B*5101 (human); assay: as above; details: not given

In order of falling binding affinity ratio (IC50 of standard peptide / IC50 of test peptide):
1. IPHAACHKCI (modifications not checked) [HPV18 E6 peptide … (position 60, 10 amino acids)]  0.0046
2. EPQRHTMLCM (modifications not checked) [HPV18 E7 peptide … (position 55, 10 amino acids)]  0.0003
3. NPAEKLRHL (modifications not checked) [HPV18 E6 peptide … (position 113, 9 amino acids)]  0.0001
4. EPQNEIPVDL (modifications not checked) [HPV18 E7 peptide … (position 16, 10 amino acids)]  0.0001
5. KPLNPAEKL (modifications not checked) [HPV18 E6 peptide … (position 110, 9 amino acids)]  0.0001
6. GPKATLQDI (modifications not checked) [HPV18 E7 peptide … (position 3, 9 amino acids)]  0.0001
7. DPTRRPYKL (modifications not checked) [HPV18 E6 peptide … (position 6, 9 amino acids)]  0.0001

CPEEKQRHL (modifications not checked) [HPV31 E6 111 …] was tested, and the relative binding ratio (IC50 of standard peptide / IC50 of test peptide) was 0.0074.

molecular target: HLA-B*5301 (human); assay: as above; details: not given

In order of rising binding affinity ratio (IC50 of standard peptide / IC50 of test peptide):
1. NPAEKLRHL (modifications not checked) [HPV18 E6 peptide … (position 113, 9 amino acids)]  0.0001
2. EPQNEIPVDL (modifications not checked) [HPV18 E7 peptide … (position 16, 10 amino acids)]  0.0001
3. KPLNPAEKL (modifications not checked) [HPV18 E6 peptide … (position 110, 9 amino acids)]  0.0001
4. IPHAACHKCI (modifications not checked) [HPV18 E6 peptide … (position 60, 10 amino acids)]  0.0001
5. GPKATLQDI (modifications not checked) [HPV18 E7 peptide … (position 3, 9 amino acids)]  0.0001
6. DPTRRPYKL (modifications not checked) [HPV18 E6 peptide … (position 6, 9 amino acids)]  0.0001
7. EPQRHTMLCM (modifications not checked) [HPV18 E7 peptide … (position 55, 10 amino acids)]  0.0043

CPEEKQRHL (modifications not checked) [HPV31 E6 111 …] was tested, and the relative binding ratio (IC50 of standard peptide / IC50 of test peptide) was 0.0006.

molecular target: HLA-B*0702 (human); assay: as above; details: not given

In order of rising binding affinity ratio (IC50 of standard peptide / IC50 of test peptide):
1. EPQNEIPVDL (modifications not checked) [HPV18 E7 peptide … (position 16, 10 amino acids)]  0.0001
2. DPTRRPYKL (modifications not checked) [HPV18 E6 peptide … (position 6, 9 amino acids)]  0.0001
3. PPKLRSTAA (modifications not checked) [HPV31 E1 289 peptide … (B07 supermotif peptide)]  0.0014
4. EPQRHTMLCM (modifications not checked) [HPV18 E7 peptide … (position 55, 10 amino acids)]  0.0026
5. IPHAACHKCI (modifications not checked) [HPV18 E6 peptide … (position 60, 10 amino acids)]  0.0065
6. NPAEKLRHL (modifications not checked) [HPV18 E6 peptide … (position 113, 9 amino acids)]  0.011
7. KPLNPAEKL (modifications not checked) [HPV18 E6 peptide … (position 110, 9 amino acids)]  0.035

molecular target: HLA-A*0301 (human); assay: competition with 125I-labeled standard peptide for purified HLA-A*0301, gel filtration; details: not given

In order of falling relative binding ratio (IC50 of standard peptide / IC50 of test peptide):
1. TMLCMCCK (modifications not checked) [HPV18 E7 60-67 peptide TMLCMCCK]  0.024
2. LSFVCPWCA (modifications not checked) [HPV18 E7 94-102 peptide …]  0.0005
3. RIKLVVESSA (modifications not checked) [HPV18 E7 71-80 peptide …]  0.0005
4. QLFLNTLSF (modifications not checked) [HPV18 E7 88-96 peptide …]  0.0005

For QVLHVLKRK (modifications not checked) [HPV18 E1 80-88 peptide …], the binding affinity ratio relative to standard peptide (IC50 standard / IC50 test) was 0.0028.

molecular target: HLA-A*1101 (human); assay: competition with 125I-labelled standard peptide for purified HLA-A*1101, gel filtration; details: not given

In order of falling binding affinity ratio (IC50 of standard peptide / IC50 of test peptide):
1. KSFLKGTPK (modifications not checked) [HPV18 E1 position 468 peptide …]  0.0015
2. KLRAGQNHR (modifications not checked) [HPV18 E1 position 647 peptide …]  0.0013

molecular target: HLA-A*2402 (human); assay: competition with 125I-labelled standard peptide for purified HLA-A*2402, gel filtration; details: not given

In order of falling binding affinity ratio (IC50 of standard peptide / IC50 of test peptide):
1. HYCYSLYGTTL (modifications not checked) [HPV16 E6 85 …]  0.065
2. EYRHYCYSL (modifications not checked) [HPV16 E6 82 …]  0.0051

In order of rising relative binding ratio (IC50 of standard peptide / IC50 of test peptide) (ratio to standard peptide):
1. KLTNTGLYNL (modifications not checked) [HPV18 E6 92-101 peptide …]  0.0001
2. EYRHYCYSL (modifications not checked) [HPV16 E6 82 …]  0.0051
3. HYSDSVYGDTL (modifications not checked) [HPV18 E6 80-90 peptide …]  0.0069
4. HYCYSLYGTTL (modifications not checked) [HPV16 E6 85 …]  0.065
